The values below come from PMC12407893 (bioRxiv, 2025).

Assay [1] addresses T1, yeast RNA polymerase II (pol II) WT, TAP tag on RPB3 (S. cerevisiae, UniProt P04050;P08518;P16370;P20433;P20434;P20435;P34087;P20436;P27999;P22139;P38902;P40 …). The assay can be described thus: cross-linking.
In assay [2] the target is RPB1, as subunit of purified yeast pol II (S. cerevisiae, UniProt P04050 1-1733). As to the kind of experiment: cross-linking.
Assay [3] concerns the target T2, RPB5, as subunit of purified yeast pol II (S. cerevisiae, UniProt P20434 1-215).
T2 sequence: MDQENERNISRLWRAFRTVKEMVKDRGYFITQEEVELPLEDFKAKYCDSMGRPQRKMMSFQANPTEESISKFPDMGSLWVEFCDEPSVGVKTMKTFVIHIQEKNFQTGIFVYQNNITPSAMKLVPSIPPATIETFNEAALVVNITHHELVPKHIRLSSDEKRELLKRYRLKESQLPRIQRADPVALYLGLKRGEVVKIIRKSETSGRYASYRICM
The assay can be described thus: cross-linking.

Assay [4] addresses T1, yeast RNA polymerase II (pol II) WT, …. As to the kind of experiment: pull-down.
Assay [5] shares this target. The assay can be described thus: pull-down. The source holds these as a separate data set.

RPB1, as subunit of purified yeast pol II, sequence (P04050 whole entry): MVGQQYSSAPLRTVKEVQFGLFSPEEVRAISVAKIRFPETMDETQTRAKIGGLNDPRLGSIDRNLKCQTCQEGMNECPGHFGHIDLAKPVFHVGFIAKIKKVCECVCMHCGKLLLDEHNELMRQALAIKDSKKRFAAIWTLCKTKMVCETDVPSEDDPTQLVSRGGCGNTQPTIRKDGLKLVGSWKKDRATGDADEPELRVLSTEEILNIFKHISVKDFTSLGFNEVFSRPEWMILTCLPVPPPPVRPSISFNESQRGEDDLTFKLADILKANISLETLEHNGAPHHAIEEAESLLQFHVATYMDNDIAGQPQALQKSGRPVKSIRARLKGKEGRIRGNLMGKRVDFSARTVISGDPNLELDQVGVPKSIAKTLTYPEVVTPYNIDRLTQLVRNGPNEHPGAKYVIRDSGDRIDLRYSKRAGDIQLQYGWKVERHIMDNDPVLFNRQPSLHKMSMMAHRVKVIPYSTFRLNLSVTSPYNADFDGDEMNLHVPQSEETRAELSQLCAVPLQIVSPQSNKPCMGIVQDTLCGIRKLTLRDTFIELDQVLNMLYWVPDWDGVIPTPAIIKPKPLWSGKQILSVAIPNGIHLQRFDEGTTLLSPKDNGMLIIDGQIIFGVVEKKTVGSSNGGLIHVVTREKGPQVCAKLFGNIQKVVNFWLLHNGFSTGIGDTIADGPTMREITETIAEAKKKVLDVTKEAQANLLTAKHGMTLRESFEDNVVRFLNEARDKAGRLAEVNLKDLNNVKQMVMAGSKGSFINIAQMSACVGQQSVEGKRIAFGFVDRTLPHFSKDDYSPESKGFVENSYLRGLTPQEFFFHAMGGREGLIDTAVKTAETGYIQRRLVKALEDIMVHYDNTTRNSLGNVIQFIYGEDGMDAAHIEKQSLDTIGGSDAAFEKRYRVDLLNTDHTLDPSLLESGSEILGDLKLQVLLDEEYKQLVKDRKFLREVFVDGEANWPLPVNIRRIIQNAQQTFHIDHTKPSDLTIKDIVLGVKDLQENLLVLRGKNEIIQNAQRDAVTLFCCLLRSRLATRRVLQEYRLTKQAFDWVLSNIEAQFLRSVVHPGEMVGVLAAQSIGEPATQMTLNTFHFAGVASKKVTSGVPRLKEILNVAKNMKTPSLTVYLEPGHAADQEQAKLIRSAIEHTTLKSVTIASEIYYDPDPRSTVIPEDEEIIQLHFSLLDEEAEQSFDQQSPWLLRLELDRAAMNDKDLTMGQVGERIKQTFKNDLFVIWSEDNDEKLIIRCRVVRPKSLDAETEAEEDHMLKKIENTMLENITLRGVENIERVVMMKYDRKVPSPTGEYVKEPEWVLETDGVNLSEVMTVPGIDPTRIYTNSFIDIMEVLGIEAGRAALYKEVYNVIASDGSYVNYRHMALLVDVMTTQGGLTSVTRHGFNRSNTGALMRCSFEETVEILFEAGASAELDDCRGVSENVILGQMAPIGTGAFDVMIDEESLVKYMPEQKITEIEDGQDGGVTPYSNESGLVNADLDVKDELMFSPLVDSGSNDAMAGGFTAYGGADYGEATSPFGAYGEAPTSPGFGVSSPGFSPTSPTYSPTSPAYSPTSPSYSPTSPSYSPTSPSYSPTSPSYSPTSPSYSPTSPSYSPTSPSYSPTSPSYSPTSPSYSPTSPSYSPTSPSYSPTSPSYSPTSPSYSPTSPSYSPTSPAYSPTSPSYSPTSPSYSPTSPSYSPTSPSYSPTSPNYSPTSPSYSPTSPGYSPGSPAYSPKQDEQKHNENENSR

B1: Prp40 FF4–6 (351–552) (domain or fragment)
chain: NYTRDRIARDNFKSLLREVPIKIKANTRWSDIYPHIKSDPRFLHMLGRNGSSCLDLFLDFVDEQRMYIFAQRSIAQQTLIDQNFEWNDADSDEITKQNIEKVLENDRKFDKVDKEDISLIVDGLIKQRNEKIQQKLQNERRILEQKKHYFWLLLQRTYTKTGKPKPSTWDLASKELGESLEYKALGDEDNIRRQIFEDFKPE
With B1, the binding result in assay [1], in assay [2] and in assay [3] was “binds” in each case.

B2: protein A-tagged Prp40, full length (natural protein)
chain: MSIWKEAKDASGRIYYYNTLTKKSTWEKPKELISQEELLLRENGWKAAKTADGKVYYYNPTTRETSWTIPAFEKKVEPIAEQKHDTVSHAQVNGNRIALTAGEKQEPGRTINEEESQYANNSKLLNVRRRTKEEAEKEFITMLKENQVDSTWSFSRIISELGTRDPRYWMVDDDPLWKKEMFEKYLSNRSADQLLKEHNETSKFKEAFQKMLQNNSHIKYYTRWPTAKRLIADEPIYKHSVVNEKTKRQTFQDYIDTLIDTQKESKKKLKTQALKELREYLNGIITTSSSETFITWQQLLNHYVFDKSKRYMANRHFKVLTHEDVLNEYLKIVNTIENDLQNKLNELRLRNYTRDRIARDNFKSLLREVPIKIKANTRWSDIYPHIKSDPRFLHMLGRNGSSCLDLFLDFVDEQRMYIFAQRSIAQQTLIDQNFEWNDADSDEITKQNIEKVLENDRKFDKVDKEDISLIVDGLIKQRNEKIQQKLQNERRILEQKKHYFWLLLQRTYTKTGKPKPSTWDLASKELGESLEYKALGDEDNIRRQIFEDFKPESSAPTAESATANLTLTASKKRHLTPAVELDY
B2: the binding result in assay [4] is on record as “binds”.

B3: GST-fused Prp40 FF3 domain (270–335) (domain or fragment)
chain: KTQALKELREYLNGIITTSSSETFITWQQLLNHYVFDKSKRYMANRHFKVLTHEDVLNEYLKIVNT
Consider B3, for which the binding result in assay [5] is listed as “binds”.

B4: GST-fused Prp40 FF6 extension (488–583) (domain or fragment)
chain: NERRILEQKKHYFWLLLQRTYTKTGKPKPSTWDLASKELGESLEYKALGDEDNIRRQIFEDFKPESSAPTAESATANLTLTASKKRHLTPAVELDY
With B4, the binding result in assay [5] is on record as “binds”.

B5: GST-fused Prp40 FF2 domain (204–269) (domain or fragment)
chain: FKEAFQKMLQNNSHIKYYTRWPTAKRLIADEPIYKHSVVNEKTKRQTFQDYIDTLIDTQKESKKKL
For B5, the binding result in assay [5] is “binds”.

B6: GST-fused Prp40 FF4 domain (351–415) (domain or fragment)
chain: NYTRDRIARDNFKSLLREVPIKIKANTRWSDIYPHIKSDPRFLHMLGRNGSSCLDLFLDFVDEQR
In the case of B6, the binding result in assay [5] is “binds”.

B7: GST-fused Prp40 FF1 domain (134–189) (domain or fragment)
chain: EAEKEFITMLKENQVDSTWSFSRIISELGTRDPRYWMVDDDPLWKKEMFEKYLSNR
Regarding B7, the binding result in assay [5] is reported as “binds”.
